These results are taken from EP4089107A1 (Cytoki Pharma ApS, dated 2022).

Residue numbers refer to the chain shown, from its start.

Assay [1] deals with T1, human IL-22 receptor (human IL-22Ra and human IL-10Rb) expressed on BHK reporter cells (human, UniProt Q8N6P7 16-574; Q08334 20-325).
T1 sequence (looked up) 1: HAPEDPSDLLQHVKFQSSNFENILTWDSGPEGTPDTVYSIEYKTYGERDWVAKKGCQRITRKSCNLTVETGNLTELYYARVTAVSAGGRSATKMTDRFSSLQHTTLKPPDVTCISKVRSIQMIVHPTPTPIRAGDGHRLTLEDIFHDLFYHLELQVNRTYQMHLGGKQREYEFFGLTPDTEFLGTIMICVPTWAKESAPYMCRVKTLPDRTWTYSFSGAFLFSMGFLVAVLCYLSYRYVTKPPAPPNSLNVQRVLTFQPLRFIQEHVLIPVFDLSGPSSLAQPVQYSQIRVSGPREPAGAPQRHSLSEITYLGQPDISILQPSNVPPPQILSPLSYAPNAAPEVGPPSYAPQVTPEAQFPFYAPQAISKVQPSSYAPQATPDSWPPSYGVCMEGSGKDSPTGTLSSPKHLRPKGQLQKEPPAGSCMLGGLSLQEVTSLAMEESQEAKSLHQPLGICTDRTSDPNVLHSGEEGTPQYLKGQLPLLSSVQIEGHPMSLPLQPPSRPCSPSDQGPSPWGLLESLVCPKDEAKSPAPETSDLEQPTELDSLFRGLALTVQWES
T1 sequence (looked up) 2: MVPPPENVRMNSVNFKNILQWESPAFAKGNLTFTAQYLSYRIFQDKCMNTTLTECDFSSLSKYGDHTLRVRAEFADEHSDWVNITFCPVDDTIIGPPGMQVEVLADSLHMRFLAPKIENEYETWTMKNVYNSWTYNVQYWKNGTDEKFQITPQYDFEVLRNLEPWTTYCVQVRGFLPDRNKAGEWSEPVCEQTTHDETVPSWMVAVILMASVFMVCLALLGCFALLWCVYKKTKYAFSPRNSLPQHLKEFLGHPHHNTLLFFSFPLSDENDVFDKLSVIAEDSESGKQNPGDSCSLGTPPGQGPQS
Put plainly: cell-based or functional assay.

Assay [2] addresses T1, human IL-22 receptor (human IL-22Ra and …). Put plainly: cell-based or functional assay. This is another data set of the same source.

B1: native mature human IL-22 (ligand)
chain: APISSHCRLDKSNFQQPYITNRTFMLAKEASLADNNTDVRLIGEKLFHGVSMSERCYLMKQVLNFTLEEVLFPQSDRFQPYMQEVVPFLARLSNRLSTCHIEGDDLHIQRNVQKLKDTVKKLGESGEIKAIGELDLLFMSLRNACI
In the case of B1, the “EC50 in BHK cell reporter gene assay (luciferase with STAT3-induced promoter)” value (from here on “EC50 in BHK cell reporter gene assay”) in assay [1] was determined as 70 pM.

B2: Derivative 1 (ligand)
chain: B1 chain with N35Q, N64Q, L106C
modifications: C18 diacid covalently attached via linker γGlu-OEG-OEG-C2DA-Ac at residue 106C
With B2, the “EC50 in BHK cell reporter gene assay” value in assay [1] is 230 pM. Also, in assay [2], the “fold reduction in potency compared to hIL-22, BHK cell assay with albumin present” value turned out to be 3 fold.

B3: Derivative 2 (ligand)
chain: B1 chain with N35Q, N64Q, R95C
modifications: C18 diacid covalently attached via linker γGlu-OEG-OEG-C2DA-Ac at residue 95C
B3: the “EC50 in BHK cell reporter gene assay” value in assay [1] amounted to 360 pM. Further, the “fold reduction in potency compared to hIL-22, BHK cell assay with albumin present” value in assay [2] turned out to be 5 fold.
